Reference: US20160009800A1 (XOMA US, published 2016)

Key:
[1] = target: T1, human insulin receptor complexed with human insulin (human, UniProt P06213 28-1382; P01308 25-54; P01308 90-110); assay: FACS, serum-starved CHO-K1 cells expressing human INSR, with insulin [cont'd]
T1 construct: whole, on cells;mature; also called hINSR-hINS complex; INS/INSR complex
Description: (§1) Twenty five microliter aliquots of cells were plated into 96 well plates, mixed with 25 ul of antibody or PPE and incubated on ice for 1 h.
(§2) The cells were then washed once with FACS buffer and the binding of the antibody was detected by the addition of 25 ul of an appropriate fluorochrome-conjugated secondary antibody. […] After a final 15 min incubation on ice the cells were washed and the pellets resuspended in FACS buffer. The cells were analyzed on a FACSCAN™ (Becton-Dickinson, Milipitas, Calif.) and the data analyzed in both FLOWJO™ (Treestar, Ashland, Oreg.) and Microsoft Excel™.

mouse insulin receptor [2] = target: T2, mouse insulin receptor (mouse, UniProt P15208 28-1372); assay: FACS, serum-starved CHO-K1 cells expressing mouse INSR, no insulin [cont'd]
T2 construct: whole, on cells; also called muINSR; mINSR
Description: as §1, §2

[3] = target: T1, human insulin receptor complexed with …; assay: KinExA antibody depletion by hINSR8-CHOK1 cells, with 175 nM insulin
Description: (§3) Beads were rotated at room temperature for 6 hours then allowed to settle. Supernatant was replaced with PBS with 50 mg/mL BSA Fraction V (Sigma-Aldrich, St. Louis, Mo.) and rotated overnight at 4° C. […] On the KinExA 3000 the sample was injected at 0.25 mL/minute for 240 seconds, then rinsed for 60 seconds in running buffer (PBS with 0.05% sodium azide), then 240 seconds of the detection solution was injected, followed by a final 90 second wash at 1 mL/minute. The difference in voltage from an early initial time-point and a time point near the end of the run was measured and used to calculate affinities. The INSR concentration on the cells was estimated at 2.5×10⁵ receptors/cell. Affinity was determined using the KinExA software (Sāpidyne, Boise Id.) and EC50's were calculated by non-linear fit in Prism (GraphPad Software, La Jolla Calif.).
(§4) Samples were incubated overnight at 4° C. for 18 hours then centrifuged to pellet cells and supernatants were removed for testing on the KinExA. […] Detection solution used was R-PE-(Fab′)2 fragment goat anti-Human IgG(H+L) (Jackson Immuno Research, West Grove Pa.).

[4] = target: T3, mouse insulin receptor complexed with human insulin (mouse; human, UniProt P15208 28-1372; P01308 25-54; P01308 90-110); assay: FACS, serum-starved CHO-K1 cells expressing mouse INSR, with insulin [cont'd]
T3 construct: whole, on cells;mature; also called muINSR/hINS complex
Description: as §1, §2

human insulin receptor [5] = target: T4, human insulin receptor (human, UniProt P06213 28-1382); assay: KinExA antibody depletion by hINSR8-CHOK1 cells, without insulin
T4 construct: whole, on cells; Uncomplexed receptor on serum-starved cells (CHOK1 transfectants or IM-9); also called hINSR; INSR
Description: as §3, §4

human insulin receptor [6] = target: T4, human insulin receptor; assay: FACS, serum-starved CHO-K1 cells expressing human INSR, no insulin [cont'd]
Description: as §1, §2

[7] = target: T1, human insulin receptor complexed with …; assay: FACS, CHO-K1 human INSR cells, signal with insulin divided by signal without insulin [cont'd]
Description: as §1, §2

[8] = target: T3, mouse insulin receptor complexed with …; assay: FACS, CHO-K1 mouse INSR cells, signal with insulin divided by signal without insulin [cont'd]
Description: as §1, §2

mouse insulin receptor [9] = target: T2, mouse insulin receptor; assay: cell-based or functional assay
human insulin receptor [10] = target: T4, human insulin receptor; assay: cell-based or functional assay
human insulin receptor [11] = target: T4, human insulin receptor; assay: cell-based or functional assay; remark: listed apart in the source
[12] = target: T1, human insulin receptor complexed with …; assay: KinExA, affinity with insulin against affinity without insulin
Description: as §3, §4

mouse insulin receptor [13] = target: T2, mouse insulin receptor; assay: cell-based or functional assay; remark: listed apart in the source
human insulin receptor [14] = target: T4, human insulin receptor; assay: cell-based or functional assay; remark: listed apart in the source
mouse insulin receptor [15] = target: T2, mouse insulin receptor; assay: FACS, serum-starved CHO-K1 cells expressing mouse INSR, no insulin
human insulin receptor [16] = target: T4, human insulin receptor; assay: FACS, serum-starved CHO-K1 cells expressing human INSR, no insulin
[17] = target: T1, human insulin receptor complexed with …; assay: FACS, serum-starved CHO-K1 cells expressing human INSR, with insulin
Description: as §1, §2

[18] = target: T3, mouse insulin receptor complexed with …; assay: FACS, CHO-K1 mouse INSR cells, signal with insulin divided by signal without insulin
[19] = target: T1, human insulin receptor complexed with …; assay: FACS, CHO-K1 human INSR cells, signal with insulin divided by signal without insulin
Description: as §1, §2

[20] = target: T3, mouse insulin receptor complexed with …; assay: FACS, serum-starved CHO-K1 cells expressing mouse INSR, with insulin

Binder	FACS area under log transformed data MFI [1]	FACS area under log transformed data MFI (mouse insulin receptor [2])	Kd [3]	FACS area under log transformed data MFI [4]	Kd (human insulin receptor [5])	FACS area under log transformed data MFI (human insulin receptor [6])	FACS area under log transformed data MFI ratio (+insulin/-insulin) [7]	FACS area under log transformed data MFI ratio (+insulin/-insulin) [8]	Fold Improvement with Insulin [12]	other results
Ab083 (antibody, IgG2, V domains shown, also called XPA.015.249) VH: not shown VL: AIQLTQSPSSLSASVGDRVTISCRASQSITSYLNWYQQKPGKAPNLLIYAASSLQSGVPSRFSGSGSGTDFTLTIAGLQPEDFATYYCQQFDSYPFTFGGGTKLEIK	294	81	0.376 nM	179	7.6 nM					
Ab075 (antibody, IgG2, V domains shown, also called XPA.015.232) VH: EVQLVETGGGVVQPGRSLRLSCAASGFSFSSYDMYWVRQAPGKGLEWVAVISYDGNDKQYADSVKGRFTISRDNSKRTLYLQMDSLRTEDTATYYCTREGNGREIDYWGPGTLVTVSS VL: QSVLTQPPSVSAAPGQKVTISCSGSSSNIGNNYVTWYQHVPGTAPKLLIFDNDKRPSGIPDRFSGSKSGTSATLAITGLQTGDEADYYCGTWDSSLNPLFGGGTQLTVL	353	425		446		692	0.51	1.05		
Ab084 (antibody, IgG2, V domains shown, also called XPA.015.250) VH: QVQLVESGGGLVQPGGSLRLSCAASGFTFKNYWMTWVRQAPGKGLEWVADIKGDGSRQHYADSVKGRFTISRDNARNSLFLQMNSLRVEDTALYYCATDPPWDRDAFDLWGQGTMVTVSS VL: AIRMTQSPSTLSASVGDRVTITCRASQSISSWLAWYQQTPGKAPKLLIYAASNLQSGVPSRFSGSGSGTDFTLTISSLQPEDFATYYCQQSYNTPLTFGGGTKVEIK	508	196		344		532	0.95	1.75		
Ab085 (antibody, IgG2, V domains shown, also called XPA.015.275) VH: EVQLVESGGGVVQPGRSLRLSCAASGFIFSSYGMHWVRQVPDKGLEWVAGISLRGSDNYYADSVKGRFTISRDNSKNTLYLQMNNLRPDDTAVYYCARGFRWPVTPFDHWGQGTLVTVSS VL: QTVVTQEPSFSVSPGGTVTLTCGLTSGSVSTRNFPGWYQQTPGQTLRTLIYNTNTRSSGVPDRFSGSILGNKAALTITGAQADDESDYYCVLYMTGDIWVFGGGTKVTVLG			0.2 nM							fold-change in insulin EC50 (pAkt) relative to isotype control, 20 ug/ml Ab085, mouse INSR CHO-K1 cells (mouse insulin receptor [9]): 8 fold; fold-change in insulin EC50 (pAkt) relative to isotype control, 1 ug/ml Ab085, human INSR CHO-K1 cells (human insulin receptor [10]): 3 fold; fold-change in insulin EC50 (pAkt) relative to isotype control, 10 ug/ml Ab085, human INSR CHO-K1 cells (human insulin receptor [10]): 9 fold; pAKT assay, fold-decrease in insulin EC50 relative to isotype control Ab (human insulin receptor [11]): 8.9 fold
Ab037 (antibody, V domains shown, Partial allosteric agonist; also called XPA.015.048) VH: EVQLLESGGGLVQPGGSLRLSCAASGFTFSSYEMNWVRQAPGKGLEWVSSISSSSRYADVANSVVGRFTISRDNSKNTLYLQMNSLRAEDTAVYYCARGEWLDHFDYWGQGTLVTVSS VL: QSVLTQPPSASGTPGQRVTISCSGSSSNIGNSAVNWYQQLPGTAPKLLIYDNNKRPSGVPDRFSGSKSGTSASLAISGLRSEDEADYYCQVWDSGTAVFGGGTKLTVLG			0.08 nM		0.108 nM				1.4 fold	EC50 of pAkt activation without insulin, mouse INSR CHO-K1 cells (mouse insulin receptor [13]): 1.42 nM; relative maximum pAkt activation without insulin, mouse INSR CHO-K1 cells (mouse insulin receptor [13]): 42%; EC50 of pAkt activation without insulin, human INSR CHO-K1 cells (human insulin receptor [14]): 0.65 nM; relative maximum pAkt activation without insulin, human INSR CHO-K1 cells (human insulin receptor [14]): 79%
Ab053 (antibody, V domains shown, also called XPA.015.196) VH: not shown VL: QSALTQPRSVSESPGKTVTISCTGSGGSIGSNYVQWYQQRPGSAPTTVIFEDNRRPSGVPDRFSGSIHSSSNSASLTISGLKTEDEADYYCQSYVGTIVVFGGGTKVTVL			0.096 nM		0.148 nM				1.5 fold	FACS area under log transformed data MFI (mouse insulin receptor [15]): 1130; FACS area under log transformed data MFI (human insulin receptor [16]): 1330; EC50 of pAkt activation without insulin, mouse INSR CHO-K1 cells (mouse insulin receptor [13]): 0.69 nM; relative maximum pAkt activation without insulin, mouse INSR CHO-K1 cells (mouse insulin receptor [13]): 48%; EC50 of pAkt activation without insulin, human INSR CHO-K1 cells (human insulin receptor [14]): 0.42 nM; relative maximum pAkt activation without insulin, human INSR CHO-K1 cells (human insulin receptor [14]): 64%; FACS area under log transformed data MFI [17]: 451; FACS area under log transformed data MFI ratio (+insulin/-insulin) [18]: 0.51; FACS area under log transformed data MFI ratio (+insulin/-insulin) [19]: 0.34; FACS area under log transformed data MFI [20]: 574
Ab080 (antibody, IgG2, V domains shown, also called XPA.015.246) VH: EVQLVESGGGVVQPGGSLRLSCAASGFTFDDYAMHWVRQAPGKGLEWVSLISWDGGSTYYADSVKGRFTISRDNSKNSLYLQMNSLRAEDTALYYCAKARGVVIIDYWGQGTLVTVSS VL: EIVLTQSPGTLSLSPGERATLSCRASQSLSSSFLAWYQQKPGQAPRLLIYGAGSRATGVPDRFSGSGYGTDFSLTISRLELEDFAVYYCQQYDRSQITFGQGTRLEIK	386	157	0.68 nM	191	12 nM	282	1.37	1.22	17.6 fold	pAKT assay, fold-decrease in insulin EC50 relative to isotype control Ab (human insulin receptor [11]): 8.4 fold
Ab076 (antibody, V domains shown, also called XPA.015.241) VH: EVQLVESGGGVVQPGGSLRLSCAASGFTFDDYAMHWVRQAPGKGLEWVSLISWDGGSTYYADSVKGRFTISRDNSKNSLYLQMNSLRAEDTALYYCAKARGVVIIDYWGQGTLVTVSS VL: EIVMTQSPATLSVSPGERATLSCRASQSISTNLAWYQQKPGQTPRLLIYGASTRATGIPARFSGSGSGTEFTLTISSLQSEDFAVYYCQQYNSEISFGQGTRLEIK	543	268		391		552	0.98	1.46		
